Legend:
Assay in all cases: TAP purification of tagged bait from yeast, trypsin digestion, mass spectrometric identification of co-purified proteins
[1] = molecular target: Fmp24 (Saccharomyces cerevisiae) (UniProt Q04472)
[2] = molecular target: Gut2 (Saccharomyces cerevisiae) (UniProt P32191)
[3] = molecular target: Mpc3 (S. cerevisiae, encoded by YGR243W) (S. cerevisiae) (UniProt P53311)
[4] = molecular target: Mpm1 (Saccharomyces cerevisiae) (UniProt P40364)
[5] = molecular target: Cor1 (Saccharomyces cerevisiae) (UniProt P07256)
Sequence of Cor1 (Saccharomyces cerevisiae) (P07256 27-457 limits assumed): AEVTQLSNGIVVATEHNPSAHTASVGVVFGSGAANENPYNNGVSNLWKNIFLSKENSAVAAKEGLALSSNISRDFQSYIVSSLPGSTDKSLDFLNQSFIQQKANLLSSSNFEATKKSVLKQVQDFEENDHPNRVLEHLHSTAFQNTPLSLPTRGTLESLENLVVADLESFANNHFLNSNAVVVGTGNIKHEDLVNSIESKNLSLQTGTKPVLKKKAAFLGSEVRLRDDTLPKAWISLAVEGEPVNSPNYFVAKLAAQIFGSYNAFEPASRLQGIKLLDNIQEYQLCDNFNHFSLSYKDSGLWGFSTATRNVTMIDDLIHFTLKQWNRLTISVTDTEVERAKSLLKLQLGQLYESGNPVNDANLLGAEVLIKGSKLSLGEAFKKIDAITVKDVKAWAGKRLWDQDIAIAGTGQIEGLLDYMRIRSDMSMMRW

[6] = molecular target: Md12 (Saccharomyces cerevisiae) (UniProt P33311)
Sequence of Md12 (Saccharomyces cerevisiae) (P33311 91-773 limits assumed): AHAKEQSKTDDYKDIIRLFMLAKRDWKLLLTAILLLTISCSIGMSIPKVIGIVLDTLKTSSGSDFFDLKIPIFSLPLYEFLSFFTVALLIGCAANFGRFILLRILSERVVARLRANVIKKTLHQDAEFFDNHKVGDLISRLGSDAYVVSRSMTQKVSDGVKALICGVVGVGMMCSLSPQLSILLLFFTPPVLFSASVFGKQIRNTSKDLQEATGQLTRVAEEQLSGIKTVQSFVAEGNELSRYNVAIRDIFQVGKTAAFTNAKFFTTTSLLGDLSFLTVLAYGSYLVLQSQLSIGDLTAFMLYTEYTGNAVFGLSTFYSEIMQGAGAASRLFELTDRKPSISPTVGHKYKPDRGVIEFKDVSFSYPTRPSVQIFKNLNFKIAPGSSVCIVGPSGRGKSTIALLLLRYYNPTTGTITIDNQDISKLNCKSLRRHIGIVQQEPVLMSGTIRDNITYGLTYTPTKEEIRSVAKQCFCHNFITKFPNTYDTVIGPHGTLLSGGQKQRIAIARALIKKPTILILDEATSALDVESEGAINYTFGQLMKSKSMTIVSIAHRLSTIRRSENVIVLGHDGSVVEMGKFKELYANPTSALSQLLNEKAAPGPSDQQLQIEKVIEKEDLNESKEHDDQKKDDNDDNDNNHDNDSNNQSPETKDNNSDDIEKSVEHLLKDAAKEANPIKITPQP

[7] = molecular target: Nde1 (Saccharomyces cerevisiae) (UniProt P40215)
Sequence of Nde1 (Saccharomyces cerevisiae) (P40215 42-560 limits assumed): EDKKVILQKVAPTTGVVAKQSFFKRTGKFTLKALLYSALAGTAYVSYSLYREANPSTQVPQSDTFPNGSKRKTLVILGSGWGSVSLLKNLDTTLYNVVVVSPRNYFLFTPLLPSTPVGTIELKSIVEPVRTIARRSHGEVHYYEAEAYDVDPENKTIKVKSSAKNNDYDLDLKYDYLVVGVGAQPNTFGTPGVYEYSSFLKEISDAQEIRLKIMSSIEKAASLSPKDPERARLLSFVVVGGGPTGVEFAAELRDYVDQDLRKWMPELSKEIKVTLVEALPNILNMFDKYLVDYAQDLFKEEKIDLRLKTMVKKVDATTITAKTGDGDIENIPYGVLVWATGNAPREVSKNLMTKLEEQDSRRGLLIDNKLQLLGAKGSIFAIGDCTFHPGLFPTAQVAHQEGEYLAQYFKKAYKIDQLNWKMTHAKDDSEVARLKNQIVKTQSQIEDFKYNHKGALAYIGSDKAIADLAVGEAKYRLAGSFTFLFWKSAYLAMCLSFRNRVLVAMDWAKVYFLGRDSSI

[8] = molecular target: Qcr2 (Saccharomyces cerevisiae) (UniProt P07257)
Sequence of Qcr2 (Saccharomyces cerevisiae) (P07257 17-368 limits assumed): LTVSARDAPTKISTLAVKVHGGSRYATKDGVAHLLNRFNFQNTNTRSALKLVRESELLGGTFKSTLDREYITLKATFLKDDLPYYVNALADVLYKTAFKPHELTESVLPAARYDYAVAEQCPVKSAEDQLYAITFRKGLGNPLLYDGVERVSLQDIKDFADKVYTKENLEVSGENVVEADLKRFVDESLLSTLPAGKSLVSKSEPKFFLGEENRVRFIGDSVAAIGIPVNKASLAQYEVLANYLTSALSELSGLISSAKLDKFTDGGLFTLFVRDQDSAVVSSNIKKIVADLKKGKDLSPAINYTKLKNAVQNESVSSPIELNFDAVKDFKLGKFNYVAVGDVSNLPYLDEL

Sequence of Gut2 (Saccharomyces cerevisiae) (P32191 whole entry): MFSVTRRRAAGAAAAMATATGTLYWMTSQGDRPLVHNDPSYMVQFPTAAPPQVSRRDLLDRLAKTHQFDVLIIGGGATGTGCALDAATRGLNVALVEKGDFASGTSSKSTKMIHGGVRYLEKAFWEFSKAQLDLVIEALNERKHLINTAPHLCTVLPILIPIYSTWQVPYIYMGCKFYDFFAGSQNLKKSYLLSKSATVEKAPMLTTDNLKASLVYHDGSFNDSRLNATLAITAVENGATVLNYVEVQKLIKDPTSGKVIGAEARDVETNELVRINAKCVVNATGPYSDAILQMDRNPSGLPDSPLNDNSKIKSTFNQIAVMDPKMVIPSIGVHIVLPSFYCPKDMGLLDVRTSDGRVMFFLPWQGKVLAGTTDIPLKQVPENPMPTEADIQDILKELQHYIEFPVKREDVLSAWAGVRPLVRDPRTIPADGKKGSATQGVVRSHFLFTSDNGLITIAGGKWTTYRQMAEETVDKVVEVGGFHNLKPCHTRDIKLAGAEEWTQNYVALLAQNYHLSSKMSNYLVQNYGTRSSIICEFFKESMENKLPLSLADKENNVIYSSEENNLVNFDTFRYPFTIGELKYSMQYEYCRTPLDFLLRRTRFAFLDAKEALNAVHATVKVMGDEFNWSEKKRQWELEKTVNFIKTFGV
Sequence of Mpm1 (Saccharomyces cerevisiae) (P40364 whole entry): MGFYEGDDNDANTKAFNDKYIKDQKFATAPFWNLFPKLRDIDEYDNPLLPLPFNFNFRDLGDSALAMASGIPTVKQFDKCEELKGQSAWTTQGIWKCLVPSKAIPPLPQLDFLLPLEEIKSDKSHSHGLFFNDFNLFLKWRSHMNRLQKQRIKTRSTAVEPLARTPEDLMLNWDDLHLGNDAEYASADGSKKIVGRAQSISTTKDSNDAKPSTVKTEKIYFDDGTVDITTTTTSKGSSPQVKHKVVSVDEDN
Sequence of Fmp24 (Saccharomyces cerevisiae) (Q04472 whole entry): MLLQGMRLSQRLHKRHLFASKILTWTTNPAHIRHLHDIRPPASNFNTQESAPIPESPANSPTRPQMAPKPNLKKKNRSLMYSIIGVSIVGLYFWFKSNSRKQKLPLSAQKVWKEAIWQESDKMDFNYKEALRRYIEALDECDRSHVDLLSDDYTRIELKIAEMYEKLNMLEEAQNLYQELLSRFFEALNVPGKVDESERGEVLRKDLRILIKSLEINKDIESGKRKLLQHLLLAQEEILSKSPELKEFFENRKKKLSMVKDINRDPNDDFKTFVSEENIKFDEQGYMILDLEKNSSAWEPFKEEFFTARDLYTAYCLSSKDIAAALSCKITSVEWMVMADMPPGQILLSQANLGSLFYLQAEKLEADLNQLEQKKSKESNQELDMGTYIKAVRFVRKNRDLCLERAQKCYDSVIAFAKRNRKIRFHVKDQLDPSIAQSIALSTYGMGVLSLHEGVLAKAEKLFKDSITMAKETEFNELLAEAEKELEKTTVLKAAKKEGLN

PSMs [1] [PSMs] | PSMs [2] [PSMs] | PSMs [3] [PSMs] | PSMs [4] [PSMs] | PSMs [5] [PSMs] | PSMs [6] [PSMs] | PSMs [7] [PSMs] | PSMs [8] [PSMs] | Substance
4 | 7 | 5 | 7 | – | – | – | – | Mpc1-His6/HA2 (from UniProt P53157 1-130)
– | 4 | 5 | – | 5 | 28 | 6 | 3 | Mpc2, tagged variant used for TAP purification (from UniProt P38857 1-129)

Source: patent US20150099790A1
